A protein production outcome set (Wang et al. 2014)

Assay: label from the status in PepcDB records

Sequence	protein production
MSNNNKYFTITKKQYKKMRRNKIELLFNVKVLKKKNGRQKFKILHEVENKPKIPIKIIEDQPESPKPLKPPKPPKPPKGPDNPEEPDSPEEPKETDQPGGPDNPNAGNKKMPTPEEYVTRKEFNEFKDSNNQRLTKIENKVDKLEVKVDKLAEIVQTQGEEIKELKVEQKAQSETLQLILKTLQKMNDRLDRMETRLDKIDSPKLEHHHHHH	not failed
MTLNRILWNYLIAPTVITIAVCGCTTQTPNTQDLIAQSPKDSQLVRTLSARSDSGYSVAYSPSSVGTILASAGAKSIKLWNPNTGKLLRTLSGQAFTVSFSPDGQILASGSQDGSLNLWDVQTGKLIRTLQHSEPVLGVVFSPDGQTLVSNLDLGSIIRLWNWRTGEIIRIKDDPDAYQKGFENFKTQPATFSLDGQTLFATSGSGSMLQSWNLKTSKRTGSFDAKSSINAVAISPDGNTLATGIRDNAIKLWNINDGKLIHTLTGHQGQVRTVAFSPDGTLLASGSSDGTVKLWNATTGKEINTFTAHKEQVWSVAFNPDGKTLASTGQDGSVKIWGVSPQ	failed
MSERIVPSGDVELWSDDFGDPADPALLLVMGGNLSALGWPDEFARRLADGGLHVIRYDHRDTGRSTTRDFAAHPYGFGELAADAVAVLDGWGVDRAHVVGLSMGATITQVIALDHHDRLSSLTMLLGGGLDIDFDANIERVMRGEPTLDGLPGPQQPFLDALALMNQPAEGRAAEVAKRVSKWRILSGTGVPFDDAEYARWEERAIDHAGGVLAEPYAHYSLTLPPPSRAAELREVTVPTLVIQAEHDPIAPAPHGKHLAGLIPTARLAEIPGMGHALPSSVHGPLAEVILAHTRSAA	not failed
MKDFFPLQQGGLVLEWVNTETKLRQLWAFRHRIFREQLQWVPLCEDGFDRDAYDDFSDNLVLCRDGEVVGAIRLTTGEHPFMLEEEFSRLLAPGERIGKGAEYSEITRLAVDREALGARESIMAARLLYLGAWLWSQVQGVRWMYFVVEPVFYRRLVMMGFPIVPVGIPRPLDGGVMSMTGLLDWRQAKTELIRSLTRGVSSPSACQALWHEYDYSH	failed
MKWYEQPLHTLSHAQWEALCDGCGQCCLNQLLDEEDNLYSTDVACRLLDTKTASCSDYAHRSERVPACVTLTPDNLDEVYFMPASCAYRLRAEGQPLPQWHPLRHEGSKEPMKKAGYHVAGHCVSEAKFKGDLEDRIVTWPLS	failed
MILNLDTNIFNHGLSRHNILAFSQGFPIGLPCRNWIEVGLRLRLRLLLELAVGNFPQGFKIHLSGSFQAVRLALFSSFTSLRTDELLLIETRPSYLSSVQVWGKGRPLLLLLTKREQPALQANREPPARFESLRAGKQEEADRAKASPLLASALPEAVEVGTRSRRSRGSSCGFRVKLAHCQKANRSSYLDQRTLIPGRQQGLRVEGMNQVSWLRIGGMGVRSVPSSPSPRLRLLETGDRVFLRRLAASPFNKGFQWQQTAPQDEAKNGVGGLPVVRASKWLAGPRKHNERDDRSSTRPEIDVLLP	failed
MAELQMLLEEEIPGGRRALFDSYTNLERVADYCENNYIQSADKQRALEETKAYTTQSLASVAYLINTLANNVLQMLDIQASQLRRMESSINHISQTVDIHKEKVARREIGILTTNKNTSRTHKIIAPANLERPVRYIRKPIDYTILDDIGHGVKVSTQNMKMGGLPRTTPPTQKPPSPPMSGKGTLGRHSPYRTLEPVRPPVVPNDYVPSPTRNMAPSQQSPVRTASVNQRNRTYSSSGSSGGSHPSSRSSSRENSGSGSVGVPIAVPTPSPPSVFPGHPVQFYSMNRPASRHTPPTIGGSLPYRRPPSITSQTSLQNQMNGGPFYSQNPVSLAPPPPSILQVTPQLPLMGFVARVQENISDTPPPPPPVEEPVFDESPPPPPPPEDYEEEEAAVVEYSDPYAEEDPPWAPRSYLEKVVAIYDYTKDKEDELSFQEGAIIYVIKKNDDGWYEGVMNGVTGLFPGNYVESIMHYSE	not failed
YRSKGEYHELLANHVAELSKLQNVLYADNRYAILLIFQAMDAAGKDSAIKHVMSGVNPQGCQVYSFKHPSATELEHDFLWRTNCVLPERGRIGIFNRSYYEEVLVVRVHPEILEMQNIPHNLAHNGKVWDHRYRSIVSHEQHLHCNGTRIVKFYLHLSKEEQRKRFLERIDDPNKNWKFSTADLEERKFWDQYMEAYESCLQETSTKDSPWFAVPADDKKNARLIVSRIVLDTLESLNLKYP	failed
MLPIAPCARQAVHRQCGGMQNSAAARKLHAVLPRTLDTARIARRSSMFLRRNGLSLCLLALTIFFIGCQVYAGLHAYNDELREQGQPTLLLSAYLHSPHFMSALFENWESEFLQMGMYVLLTVKLRQVGSAESRPLDPTEETVEIKSGPTPWPVRAGGVWRRLYDHSLAIAFAALFLMSFALHLVGSWRLEVTERAQKGLPPITVLEHFTSASFWFESMQNWQSEFLAVFSLVVLTIWLRQKDSPQSKPVEAPHSQTGG	failed
CVECRKPIGADSKEVHYKNRFWHDTCFRCAKCLHPLANETFVAKDNKILCNKCTTREDSPKCKGCFKAIVAGDQNVEYKGTVWHKDCF	not failed
MDMKTKLQTIIGMFQITAWDETSYFESDNGAKLTQAVITQSYQGVLQGHSEIRYLMSYQDNANATFVGFEHFTGSLGDKKGSFILQHKGLFAAGVASSEFELVERSATGDFVHLVGKGHFVSTENGQANYQITLQDS	not failed
MKNKTIISKQNLVLIVIMVGATLTDQLSKIWITSNLQLGESIEIIPSFFKITYAQNTGAAWSILEGQMTFFYVITLVALILLGWYFYRLKDYQIIQKIGVALMVSGTLGNFIDRLLFQYVRDSLDFHILGYNFPIFNVADVLLICGVLFIIIDEVLKSFGVSYKKM	failed
MKIRNDGPALAGWNVAWEMPDGQEITNSWNGRFVQTGAHVDVGNLDWNKDIPAGSNIEFGFNGSHTGRNRTPASLSVNGVKCTMAVAAPPPSPRPAACEATYQISDQWNTGFTANVRIRNDGDPLAGWKVVWDMPDGQRVTNSWNGRFTQSGSHVEVGHLDWNRDIATGSNIEFGFNGSHAGANRAPSSLSLNGVACALVTVAPSPTPAPTATPSPIPTPTPSPAPTASPSPAPTPTPAPTSSPSPTPAPTGPCQADYQVTAQWNDGFTANVKVRNNGTALDGWTVAWTMPSGQTVTGMWNGQYVQTGPQVAVTPADWNRQIASGASIEFGFNGSHSGSNAVPGVLTLNGAACATTTGGGTPTPTPVPVAPGAPAGLSATVADNAVVNLVWTAADAFAQGFRIERRTAAGVDWALVAETAAGVPSFGDGTVAMGNDYEYRVYAFNAVGNSPPATASASLPTLLKYGESQYQKQGCASCHGKDGKGGFTNKPLVHFTADQLATLTEIIRVRMPPSKPANCVSNCAAGTAKYIIEVLAAAASGGGGGGGNACAGSPPPGGRALRLLTRQEYQNTVNDLLGLSENLVHLLPEENRVDGFDNNVATNLVTSIRLEAFLTQAEALAAKAVQQNWNALLPCTQQDAACARRFVEAFGKRAYRRPLTPEEADAYAALFGQGSFREGVEATITHMLVSPNFLYRSELGEVQADGTYKLTPYETASALSYLFLGSLPDGELVSAADQNLLDTPDQRIAHASRLLSLPRSRNRVGHFVGQWLLGTSPYTLPEKDQAVYPRYDAAVRSAMSEELIGFFDHVAFESTQSFPELFTANYVVVDDTLADYYGLGRPGGSGFAPVTVSDGTRTGILTLGAVLSRYANSNESHPFKRGGFLYKRLLCRDLPLPANAGFIQAPQPDPNATTRQRFEFHSKSNTSCYGCHQYLDGPGFGFENYDGAGIFRASENGQAIDASGVLRGLETFTPTEELSFTDLPDLSRKIAASPTAAQCAARQYYRFATGRREASSDSCALDSFLQTYSANGHNLQTMLLGIVNAPGFTVRRADQ	failed
MHSIRNFFCGQWSSSVRLDEKTVIITGANTGIGKETARDLARRGARVVMACRDLEKAEAARRELMDNSGNQNIVVKKLDLADTKSIKAFAELINKEEKQVNILINNAGIMMCPYSKTADGFEMQFGVNHLGHFLLIYLLLDLLKKSTPSRIVNVASVAHTWSGIHLEDINSEKVYSPRRAYGQSKLANILCTRSLAKRLQGSGVNVYSLHPGVVQSELFRNLSKPAQIAFKVFSPFTKTTSQGAQTTIYCAIEPELDRESGGYYSDCGPAQCSREASDDEMAQKLWELSCQMLGIIWD	failed
MTPAARLSAAIELIDTIERDRVPAAKALKEWGTAHRFAGSGDRAAIAGLVWDVLRRYASSAFLMDADTARARLIGMLRLERDMDAATMAALFDGSRFAPAPLTEAEQAALSHRSLRDAPAAIAGDYPEWLDPHLAKVFGEDRAAEAAAMASRAPLDLRVNTLKSNRDKVLRALAHLHAKPTPWSATGLRIELSADARNPGIQAEEDFIKGAVEVQDEGSQLAAQFTAAKPGEQVIDLCAGAGGKTLALAAMMQGKGRLIATDSDKRQLAPIHERLSRAGVHNADVRTPKGEADPLADISATADLVVIDAPCTGTGTWRRNPDAKWRMRPGALEIRLRDQAEVLERAVPLVKLGGRIAYITCSVLAEENGEQVRAFIGRHPEFAVVPPEQIASVLWDKAEDFAKAALQSPEGWLMTPRRTGTDGFFVSVLKKTA	failed
MCRKRYKKQNLGVSKNMLEGHENKVSGVYEKNRSAGYEKEILKPKNVWEEFFADKRSGGHRSSAEEFLAMEAKEKLFHLDGGKILLDFGCGAGELLVYYAQEYEKTIGVDFSPSMLEEASKRIRERNCKNTTLILADDKIVWDKLDSSFDRITAAGVFQYLTYQKIDDFIFNASKHLNEGGKIVLFDMLDPRLYPLWKMGLFSQDKSCRKILSKAVCGVKNSISASLKRRPRDILGYSHYPNKIKKIANKNGFEMICVQSMYYEYKYHAIIFRS	failed
MSDVTQQKKRKRSKGEVNPSKPTVDEEITDPSSNEDEQLEVSDEEDALESEEEFEGENPADKRRRLAKQYLENLKSEANDILTDNRNAEEKDLNNLKERTIDEYNNFDAGDLDKDIIASRLKEDVAEQQGRVFRYFGDKLLISEAKQSFTRVGENNLTCISCFQPVLNKYTFEESSNGDKNKGRLFAYTVSKDLQLTKYDITDFSKRPKKLKYAKGGAKYIPTSKHEYENTTEGHYDEILTVAASPDGKYVVTGGRDRKLIVWSTESLSPVKVIPTKDRRGEVLSLAFRKNSDQLYASCADFKIRTYSINQFSQLEILYGHHDIVEDISALAMERCVTVGARDRTAMLWKIPDETRLTFRGGDEPQKLLRRWMKENAKEGEDGEVKYPDESEAPLFFCEGSIDVVSMVDDFHFITGSDNGNICLWSLAKKKPIFTERIAHGILPEPSFNDISGETDEELRKRQLQGKKLLQPFWITSLYAIPYSNVFISGSWSGSLKVWKISDNLRSFELLGELSGAKGVVTKIQVVESGKHGKEKFRILASIAKEHRLGRWIANVSGARNGIYSAVIDQTGF	failed
MGCAGSTQSQADGSVKKIRKPKPWKHTQPITKAELMKLREEFWDTAPHYGGRKEIWDALRAAAEADISLAQAIVDSAGVIVQNTDLTVCYDERGAKYELPKYVLSEPTNLEEEN	failed
MTLQLNFGRVEDMNKSSLTTTALTILRVIAGFLFAAHGWQKFNEFTIAGTQASFTQMGVPGASAVAPIVATLELVGGIALIIGLLTRVFAALLAVNMLGALFLVHAPAGVFVGNGGYELVLLFAGAALALALAGAGRISADAALFGRQSSKLRVLA	failed
MDEVNVIARITGVSRVRTFERDGREGRFISLDIMDATGSTTYTLWNNDVNLVEELGLKEGDAVKILWAQPRRRDDKVTLTHTSLTRVVPGLEHHHHHH	failed
PGSTDFNGALILGLGIDLEKAVGWKNAFFEVEGLQYNGQPVNFAAGSVQGYNSIEAGPPLNRTELYQLWLNQTFLDNRLSFRVGKLIPSMNFGYVGRPFVTQTNPQLFTSTTGLIYTPVFVGPAMLGFIPGYYNSAFGLYGSWKSWGAPGDNPATPNGWYTQAGIYDGRGAQGVQTGLTWPNFSGALFSVAEVGGTWTPYADDPATGWGSVAVGGWRQSGPLTAPGGAFEAQTGGMYAYLVQKLGKFRDSEDQNGIVGFVQGGWNSSSTALMHSSLGFGLTFIAPFGDRPLDSYGFGFSWARLNANPLAGYGFNSYETMIQLYAQYHLVGNLFIQPVLTVLPTPGSGGAGAPSVSGTVQLTFPF	failed
